Numbering of substitutions follows the chain as printed. Read-outs that look alike come from different tables or passages of the source.

As a reminder, the Kd is the constant that tells how readily two partners part at equilibrium. Low readings indicate a tighter complex, high ones a looser complex. A word on the koff: it is the first-order rate constant of dissociation. What is called kon is a measure of how fast the partners come together. Lower therefore signals slower complex formation. What is called EC50 is the concentration giving half of the maximal effect. A higher EC50 goes with a need for much substance.

Experiment [1] concerns the target T1, Human PD-1 protein with histidine and avi tags (ACRO Biosystems, PD1-H82E4) (human, UniProt Q15116 25-167).
T1 construct: Captured on streptavidin (SA) sensors in the BLI assay; not shown: histidine and avi tags
The experiment can be described thus: BLI (Octet Red96e), PD-1 captured on SA sensor, 1:1 local fit. As for the experimental part: (§1) Human PD-1 proteins with histidine and avi tags were purchased from the manufacturer ACRO Biosystems (Cat#: PD1-H82E4), and the assay buffer was 1× kinetics buffer (diluted from 10× kinetics buffer (ForteBio, Cat#: 18-1105)) for kinetic assay and dilution of antigens and antibodies. The binding kinetics between the antigen and the antibody was analyzed by the biolayer interferometry (BLI) technique using an Octet molecular interaction analyzer (ForteBio, model: Octet Red96e).
(§2) When the binding kinetics between the antigen and the antibody was determined, the rotation speed of the sensor was set at 1000 rpm/min. The eight SA sensors placed in a column were first equilibrated in an assay buffer for 10 min and then used to capture PD-1 at a capture height of 0.5 nm. Thereafter, the SA sensors were equilibrated in the assay buffer for 100 s, and then were associated with each antibody diluted to a single concentration and with a row of blank buffer wells for 180 s, followed by dissociation for 600 s. A new column of SA sensors were used in each cycle.
(§3) When data analysis was performed using Octet Data Analysis software (Fortebio, version 11.0), the reference signals were subtracted by a single reference mode (reference well), the data were fitted by a “1:1 Local fitting” method, and the kinetic parameters of the binding of the antigen to the antibody were calculated to obtain kon (1/Ms) values, kdis (1/s) values and KD (M) values.
(BLI is a label-free optical method that tracks binding on a fibre tip over time.)

Experiment [2] deals with T1, Human PD-1 protein with histidine and …. Briefly: BLI; ratio of kdis, apparently PR005090 over the variant. As for the experimental part:
as §1, §2, §3

Experiment [3] addresses T2, Human PD-1 expressed on CHO-K1 cells (CHO-K1/hPD-1) (human, UniProt Q15116 25-288).
T2 construct: whole, on cells; also called CHO-K1 cells overexpressing human PD-1
The experiment can be described thus: FACS, CHO-K1/hPD-1 cells. As for the experimental part:
In order to investigate the in vitro binding activity of the PD-1 antigen-binding proteins to human/cynomolgus monkey PD-1, the binding assay at the cellular level was performed using a CHO-K1 cell strain overexpressing human or cynomolgus monkey PD-1 (CHO-K1/hPD-1 or CHO-K1/cyno PD-1, from GenScript). Briefly, the CHO-K1-hPD-1 cells were digested and resuspended in an F-12K complete medium, and the cell density was adjusted to 1×10⁶ cells/mL. The cells were seeded in a 96-well V-bottom plate (Corning, Cat#3894) at 100 μL/well, followed by the addition of the test antigen-binding proteins with concentrations 2-fold of final concentrations obtained by 5-fold gradient dilution were each added at 100 μL/well. The mixtures were well mixed. The maximum final concentration of the antigen-binding proteins was 100 nM or 300 nM. A total of 8-11 concentrations were set. hIgG was used as a control. The cells were incubated at 4° C. for 1 h away from light. Thereafter, the cells in each well were rinsed twice with 100 μL of pre-cooled PBS, and centrifuged at 500 g at 4° C. for 5 min, and then the supernatant was discarded. Then 100 μL of a fluorescent secondary antibody (goat anti-human IgG (H+L) secondary antibody, Alexa Fluor® 488 conjugate, Invitrogen, Cat #A11013, 1:1000) was added to each well. The plate was incubated away from light at 4° C. for 30 min. The cells in each well were rinsed twice with 200 μL of pre-cooled PBS, and centrifuged at 500 g at 4° C. for 5 min, and then the supernatant was discarded. Finally, the cells in each well were resuspended in 200 μL of pre-cooled PBS, and the fluorescence signal values were read using a BD FACS CANTOII.
Background: In flow cytometry, cells or beads pass a laser one at a time.

Experiment [4] deals with T2, Human PD-1 expressed on CHO-K1 cells …. Briefly: FACS, CHO-K1/hPD-1 cells. This is another data set of the same source.
The target is the same in experiment [5]. The experiment can be described thus: FACS, CHO-K1/hPD-1 cells. This is another data set of the same source.

T2 sequence (Q15116 25-288): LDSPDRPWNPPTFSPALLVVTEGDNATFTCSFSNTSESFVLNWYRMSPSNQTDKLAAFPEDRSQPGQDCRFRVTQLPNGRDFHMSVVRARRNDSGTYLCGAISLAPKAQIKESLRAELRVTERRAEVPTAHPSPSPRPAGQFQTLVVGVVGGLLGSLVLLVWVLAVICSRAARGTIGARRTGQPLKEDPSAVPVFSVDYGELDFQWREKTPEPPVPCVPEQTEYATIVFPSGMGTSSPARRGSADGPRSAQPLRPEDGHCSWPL
T1 sequence (Q15116 25-167 limits assumed): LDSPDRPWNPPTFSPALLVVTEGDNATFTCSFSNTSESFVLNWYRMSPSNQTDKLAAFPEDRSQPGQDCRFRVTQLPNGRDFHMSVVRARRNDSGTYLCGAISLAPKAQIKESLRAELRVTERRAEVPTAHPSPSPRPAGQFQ

B1: PR005098 (VHH)
VHH: EVQLVETGGGLIQPGGSLRLSCAASGFNVSSHYMSWVRQAPGKGREWVSIIDGGGSTYYADSVKGRFTISRDNSKNRLYLQMNSLRAEDTAMYYCARATQVREKGGYNYPFNYWGQGTLVTVSS
notes: Monovalent single-domain (VH) variant of PR002481 with Flag-6His tag
With B1, in experiment [1], the dissociation constant Kd came out at 5.88 nM, the koff turned out to be 0.000394 s⁻¹ and the association rate constant (kon) was found to be 67100 M⁻¹ s⁻¹. Besides, in experiment [2], the kdis ratio amounted to 2.9. Moreover, in experiment [3], a half-maximal response (EC50) required 18.4 nM and the “MFI Maximum” value came to 5720.

B2: PR005583 (antibody, human IgG1, V domains shown)
VH: B1 VHH with S30A, H32F, G53K, G54A, Q100E, G105Q
notes: no light chain; also called anti-PD1 PR002481Com_29 HCAb hIgG1
Take B2: in experiment [1], the Kd was found to be 1.69 nM, the koff came out at 1.65e-05 s⁻¹ and the kon is 8280 M⁻¹ s⁻¹. In experiment [4], the midpoint of the response, the EC50, lay at 4.79 nM and the “Maximum (MFI)” value was 2.76e+06.

B3: PR005104 (VHH)
VHH: B1 VHH with G53I, G54S, Q100A, R102A, G105N
notes: as for B1
In experiment [1], B3 registered a Kd of 3.08 nM, a koff of 0.000243 s⁻¹ and a kon of 79000 M⁻¹ s⁻¹. Moreover, in experiment [2], the kdis ratio was determined as 4.7. In experiment [3], the response was half-maximal at 11.8 nM (EC50) and the “MFI Maximum” value stood at 7300.

B4: PR005585 (antibody, human IgG1, V domains shown)
VH: B1 VHH with N28T, H32F, G53K, G54A, Q100E, G105Q
notes: no light chain; also called anti-PD1 PR002481Com_35 HCAb hIgG1
On to B4, for which, in experiment [1], the affinity, expressed as Kd, was 3.08 nM; the koff was found to be 2.22e-05 s⁻¹; the kon amounted to 13200 M⁻¹ s⁻¹. In experiment [4], a half-maximal effect (EC50) was put at 7.83 nM and the “Maximum (MFI)” value was 3.11e+06.

B5: PR005099 (VHH)
VHH: B1 VHH with G53S, G54A, Q100A, R102A, G105N
notes: as for B1
In experiment [1], B5 displayed a Kd of 4.32 nM, a koff of 0.000455 s⁻¹ and a kon of 105000 M⁻¹ s⁻¹. For the same molecule, the kdis ratio in experiment [2] was 2.51. Further, in experiment [3], the EC50 came out at 15.4 nM and the “MFI Maximum” value was 6350.

B6: PR005101 (VHH)
VHH: B1 VHH with G53K, S56G, Q100A, R102A, G105N
notes: as for B1
In experiment [1], B6 displayed a Kd of 58.8 nM, an off-rate (koff) of 0.000173 s⁻¹ and an on-rate constant (kon) of 2940 M⁻¹ s⁻¹. For the same molecule, the kdis ratio in experiment [2] came to 6.61. For the same molecule, in experiment [3], it took 22.1 nM to reach a half-maximal effect (EC50) and the “MFI Maximum” value is 6900.

B7: PR005584 (antibody, human IgG1, V domains shown)
VH: B1 VHH with H32F, G53K, G54A, Q100E, G105Q
notes: no light chain; also called anti-PD1 PR002481Com_30 HCAb hIgG1
Turning to B7, in experiment [5], the EC50 was determined as 4.02 nM and the “Maximum (MFI)” value is 3.02e+06.

B8: PR005571 (antibody, human IgG1, V domains shown)
VH: B1 VHH with S31F, H32Y, G53K, Q100E, G105Q
notes: no light chain; also called anti-PD1 PR002481Com_31 HCAb hIgG1
For B8, in experiment [5], a half-maximal effect (EC50) was put at 6.55 nM and the “Maximum (MFI)” value is 2.95e+06.

B9: PR005577 (antibody, human IgG1, V domains shown)
VH: B1 VHH with S30A, H32Y, G53K, G54A, T57G, Q100E, G105Q
notes: no light chain; also called anti-PD1 PR002481Com_26 HCAb hIgG1
B9: in experiment [4], a half-maximal response (EC50) required 6.5 nM and the “Maximum (MFI)” value amounted to 2.49e+06.

B10: PR005573 (antibody, human IgG1, V domains shown)
VH: B1 VHH with G53K, G54A, T57G, D61A, Q100E, G105N
notes: no light chain; also called anti-PD1 PR002481R2M3_D1 HCAb hIgG1
For the molecule B10, in experiment [5], the response was half-maximal at 4.73 nM (EC50) and the “Maximum (MFI)” value amounted to 3.08e+06.

B11: PR005574 (antibody, human IgG1, V domains shown)
VH: B1 VHH with G53K, G54A, T57G, Q100E, G105Q
notes: no light chain; also called anti-PD1 PR002481R2M1_F1 HCAb hIgG1
In the case of B11, in experiment [5], a half-maximal response (EC50) required 3.91 nM and the “Maximum (MFI)” value was found to be 2.82e+06.

B12: PR005570 (antibody, human IgG1, V domains shown)
VH: B1 VHH with S31F, H32Y, G53K, A60G, Q100E, G105N
notes: no light chain; also called anti-PD1 PR002481R2M1_H3 HCAb hIgG1
As for B12, in experiment [5], the midpoint of the response, the EC50, lay at 6.54 nM and the “Maximum (MFI)” value was determined as 3.18e+06.

B13: PR005575 (antibody, human IgG1, V domains shown)
VH: B1 VHH with S30A, G53K, G54A, T57G, Q100E, G105Q
notes: no light chain; also called anti-PD1 PR002481Com_24 HCAb hIgG1
In experiment [1], B13 yielded a Kd of 6.46 nM, a koff of 4.28e-05 s⁻¹ and a kon of 12900 M⁻¹ s⁻¹. In experiment [4], the EC50 was 3.93 nM and the “Maximum (MFI)” value was determined as 2.58e+06.

B14: PR005569 (antibody, human IgG1, V domains shown)
VH: B1 VHH with S31F, H32Y, G53K, G54S, D61A, Q100E, G105N
notes: no light chain; also called anti-PD1 PR002481R2M4_E2 HCAb hIgG1
For the molecule B14, in experiment [1], binding was put at a Kd of 0.482 nM, the koff came to 5.75e-06 s⁻¹ and the kon worked out at 11900 M⁻¹ s⁻¹. Also, in experiment [4], a half-maximal effect (EC50) was put at 3.4 nM and the “Maximum (MFI)” value amounted to 3.14e+06.

B15: PR005582 (antibody, human IgG1, V domains shown)
VH: B1 VHH with S30A, H32F, G53K, G54A, A60G, D61A, Q100E, G105Q
notes: no light chain; also called anti-PD1 PR002481Com_28 HCAb hIgG1
Take B15: in experiment [5], the EC50 was 8.62 nM and the “Maximum (MFI)” value was determined as 3.3e+06.

B16: PR005572 (antibody, human IgG1, V domains shown)
VH: B1 VHH with S30A, S31F, H32Y, G53K, Q100E, G105Q
notes: no light chain; also called anti-PD1 PR002481Com_32 HCAb hIgG1
With B16, in experiment [1], the Kd was found to be 3.32 nM, the koff is 4.28e-05 s⁻¹ and the kon worked out at 12900 M⁻¹ s⁻¹. In addition, in experiment [4], the EC50 was determined as 4.68 nM and the “Maximum (MFI)” value was 3.04e+06.

B17: PR005102 (VHH)
VHH: B1 VHH with G53R, Q100A, R102A, G105N
notes: as for B1
Take B17: in experiment [1], binding was put at a Kd of 5.99 nM, the koff was 0.000268 s⁻¹ and the on-rate constant (kon) worked out at 44800 M⁻¹ s⁻¹. Further, the kdis ratio in experiment [2] was determined as 4.25. In experiment [3], the EC50 is 12.2 nM and the “MFI Maximum” value came out at 6560.

B18: PR005578 (antibody, human IgG1, V domains shown)
VH: B1 VHH with S30A, H32Y, G53K, G54A, T57G, Q100A, G105Q
notes: no light chain; also called anti-PD1 PR002481Com_27 HCAb hIgG1
On to B18, for which, in experiment [4], the EC50 was 4.28 nM and the “Maximum (MFI)” value was 2.71e+06.

B19: PR005103 (VHH)
VHH: B1 VHH with G53R, S56G, Q100A, R102A, G105N
notes: as for B1
In experiment [1], B19 had a Kd of 79.6 nM, a koff of 0.000252 s⁻¹ and an association rate constant (kon) of 3160 M⁻¹ s⁻¹. Moreover, the kdis ratio in experiment [2] stood at 4.54. Further, in experiment [3], the concentration for a half-maximal effect (EC50) amounted to 14.5 nM and the “MFI Maximum” value amounted to 6890.

B20: PR005100 (VHH)
VHH: B1 VHH with G53R, T57K, Q100A, R102A, G105N
notes: as for B1
In the case of B20, in experiment [1], the Kd turned out to be 11.6 nM, the off-rate (koff) was found to be 0.000301 s⁻¹ and the kon came out at 26000 M⁻¹ s⁻¹. In experiment [2], the kdis ratio came out at 3.8. Moreover, in experiment [3], a half-maximal response (EC50) required 19 nM and the “MFI Maximum” value amounted to 6510.

B21: PR005581 (antibody, human IgG1, V domains shown)
VH: B1 VHH with H32F, G53K, G54A, A60G, D61A, Q100E, G105Q
notes: no light chain; also called anti-PD1 PR002481R2M1_A1 HCAb hIgG1
Regarding B21, in experiment [5], the EC50 was determined as 7.31 nM and the “Maximum (MFI)” value stood at 3.16e+06.

(Values after patent publication US20240034792A1 (HARBOUR BIOMED SHANGHAI, published 2024).)
